Results taken from the supplement of paper PMC10567573.

B1: RIPK4 (parent)
chain: VIDLFDEQGLSALHLAAQGRHAQT
B2: SLC35F2 (parent)
chain: SFMPLVIKVTSATSVNLGILTADL

Variants of: B1
Assay: protein stability index of a GFP-peptide fusion (GPS, HEK-293T) (PSI 1-6); higher = more stable
Conditions: c terminus: a fixed tail appended
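Note: lentivirally expressed fusions sorted by FACS into six bins by GFP to DsRed ratio, PSI derived from sequencing read proportions per bin multiplied by bin number.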

Protein stability index, by site and new letter:
E7: K 1.86 | C 1.73 | T 2.45 | M 1.1 | Y 1.48 | S 2.73 | I 2.2 | F 1.68 | R 1.98 | W 1.98
G9: T 2.25 | D 3.16 | Y 1.6 | I 1.94 | H 2.77 | P 3.2 | A 2.76
L4: C 2.76 | W 2.85 | R 3.34 | V 3.26 | M 3.11 | I 2.86
I2: C 3.4 | W 2.36 | Y 2.97 | V 3.67 | S 3.88 | Q 3.76 | P 3.66 | R 3.24 | N 3.79 | L 2.25 | D 4.21
Q18: M 2.15 | V 2.3 | D 3.42 | H 2.18 | C 2.3 | E 3.19 | W 2.88 | L 1.85 | S 2.64 | T 2.36
R20: G 2.94 | Q 3.29 | M 2.58 | L 2.34 | A 2.66
A22: E 3.61 | N 3.09 | P 2.79 | K 3.17 | S 2.91 | D 3.03 | L 2.1 | G 2.73 | R 3.13 | M 2.4 | I 2.14 | W 1.57
D3: Q 2.46 | N 2.7 | K 2.31 | F 3.19 | W 2.95 | G 2.58 | C 2.25 | S 2.69 | P 2.81
Q23: R 3.49 | L 2.52 | M 1.84 | C 2.59 | N 2.84 | I 2.16 | W 1.93
G19: A 2.57 | I 1.42 | E 3.37 | H 2.59 | N 3.03 | D 3.55 | K 3.13 | R 2.44
D6: F 2.33 | W 2.55 | S 2.57 | R 2.04 | P 3.13 | E 2.71 | H 2.06 | T 2.15
F5: M 2.78 | P 4.81 | K 4.16 | E 4.6 | A 4.21 | D 4.18 | W 2.44 | N 2.98 | T 3.94 | Q 3.91
V1: N 3.7 | Q 4.09 | T 3.82 | K 3.92 | H 3.45 | Y 2.16 | P 3.72
H21: T 3.07 | W 1.9 | F 2.22 | S 2.76 | K 3.41 | Q 3.23 | C 2.89
H14: D 3.6 | A 2.49 | F 1.82 | S 2.55 | C 2.1 | K 2.8 | Q 3.2 | E 4.04 | P 3.54 | I 1.88 | G 2.6 | N 3.5 | Y 2.09 | V 2.28
S11: F 2.43 | R 2.03 | G 2.94 | A 2.79 | N 2.95 | P 2.95 | K 2.65 | C 2.63 | T 2.63 | W 2.52 | Y 2.31 | D 3.04
A16: P 3.42 | Y 2.08 | E 3.2 | V 2.01 | N 3.46 | M 2.4 | Q 2.77 | R 2.42 | T 3.11
A17: P 2.82 | H 2.72 | D 3.84 | C 2.54 | S 2.83 | R 3.17 | F 2.47 | N 3.13
L15: K 3.39 | E 3.47 | Y 2.32 | P 3.37 | W 2.26 | M 3.09 | N 3.8 | G 3.74 | V 3.07
A12: G 2.39 | W 2.12 | V 1.99 | K 3.5 | N 3.1 | P 3.25 | T 2.82 | D 3.21
T24: K 3.13 | N 2.92 | G 3.15 | P 2.41 | E 4 | Y 1.91 | H 2.38
L13: A 3.38 | C 2.22 | G 3.87 | I 2.75 | Y 2.53 | H 3.48 | W 2.82
Q8: R 2.82 | I 1.46 | A 2.73 | Y 2.25 | W 1.45 | C 1.76 | S 2.65
L10: Q 3.25 | W 2.23 | P 3.63 | A 3.33 | T 3.08 | N 3.83 | G 3.6 | S 3.76 | E 4.48 | D 3.93

Variants of: B2
Assay: as above
Conditions: c terminus: a fixed tail appended

Protein stability index: each site, then its substitutions
S1: A 3.22 | C 3.77 | E 4.28 | F 3.08 | G 2.77 | H 2.96 | I 3.16 | K 5.06 | L 3.05 | M 2.14 | N 3.55 | P 3.06 | R 2.98 | T 3.15 | W 3.82 | Y 3.38
F2: A 2.38 | C 2.58 | D 2.12 | E 2.65 | G 3.11 | H 1.71 | I 3.41 | K 3 | L 2.42 | M 2.47 | N 2.48 | P 2.47 | Q 3.56 | R 2.01 | S 2.92 | T 2.87 | V 2.68
M3: C 1.59 | D 2.11 | G 3.41 | I 2.15 | K 2.4 | L 2.73 | N 3.15 | P 3.32 | Q 2.13 | R 1.58 | S 3.76 | T 2.79 | V 2.06 | W 4.7 | Y 1.96
P4: A 2.68 | C 3.66 | D 1.64 | E 3.23 | F 1.91 | G 2.32 | H 3.09 | L 2.34 | M 3.13 | Q 4.03 | R 5.37 | S 1.73 | T 2.71 | V 3.1 | W 3.07
L5: A 3.18 | C 3.74 | D 1.88 | E 1.51 | G 1.68 | H 2.28 | I 2.1 | K 1.88 | M 2.94 | N 2.24 | P 2.55 | Q 2.19 | R 1.65 | S 1.47 | T 3.25 | V 2.41 | W 2.75 | Y 3.46
V6: A 2.02 | C 3.92 | D 2.09 | E 1.24 | F 2.02 | G 3.03 | H 2.74 | I 2.65 | K 2.88 | L 2.32 | M 1.36 | N 2.29 | P 2.06 | Q 1.86 | R 2.43 | S 2 | T 2.76 | W 4.41 | Y 3.21
I7: A 2.13 | C 2.11 | D 1.98 | E 1.49 | F 3.03 | G 2.17 | H 1.57 | K 1.76 | L 3.42 | M 2.87 | N 2.21 | P 1.88 | Q 2.26 | R 2.16 | S 1.89 | T 2.19 | V 3.05 | W 3.77
K8: A 2.83 | C 3.64 | D 2.75 | E 3.06 | G 2.94 | H 2.59 | I 3.97 | M 2.42
